Experimental data reported in the RNAGym collection of RNA variant scans (doi:10.7554/elife.80360).

B1: Hammerhead Ribozyme (parent)
chain: ACCGGAUGUGCUUUCCGGUCUGAUGAGUCCGUGAGGACGAAACAG

Variants of: B1
Test: self-cleavage, relative activity (ratio to wild type); higher = more cleavage; co-transcriptional

Variant | self-cleavage
G18U G22A | 0.344
G18U G22C | 0.372
G18U G22U | 0.378
G18U G25A | 0.369
G18U G25C | 0.322
G18U G25U | 0.324
G18U G27A | 0.567
G18U G27C | 0.427
G18U G27U | 0.53
G18U G31A | 0.905
G18U G31C | 0.685
G18U G31U | 0.781
G18U G33A | 0.948
G18U G33C | 0.602
G18U G33U | 0.705
G18U G35A | 0.555
G18U G35C | 0.515
G18U G35U | 0.532
G18U G36A | 0.621
G18U G36C | 0.308
G18U G36U | 0.425
G18U G39A | 0.339
G18U G39C | 0.32
G18U G39U | 0.392

Variant | self-cleavage
G18U G45A | 0.379
G18U G45C | 0.476
G18U G45U | 0.475
G18U U19A | 0.34
G18U U19C | 0.487
G18U U19G | 0.291
G18U U21A | 0.381
G18U U21C | 0.544
G18U U21G | 0.426
G18U U24A | 0.858
G18U U24C | 0.642
G18U U24G | 0.607
G18U U28A | 0.461
G18U U28C | 0.351
G18U U28G | 0.581
G18U U32A | 0.646
G18U U32C | 0.857
G18U U32G | 0.802
U19A | 0.391
U19A A23C | 0.346
U19A A23G | 0.426
U19A A23U | 0.386
U19A A26C | 0.364
U19A A26G | 0.313

Variant | self-cleavage
U19A A26U | 0.255
U19A A34C | 0.32
U19A A34G | 0.36
U19A A34U | 0.388
U19A A37C | 0.43
U19A A37G | 0.326
U19A A37U | 0.281
U19A A40C | 0.339
U19A A40G | 0.307
U19A A40U | 0.35
U19A A41C | 0.391
U19A A41G | 0.312
U19A A41U | 0.308
U19A A42C | 0.369
U19A A42G | 0.34
U19A A42U | 0.378
U19A A44C | 0.368
U19A A44G | 0.512
U19A A44U | 0.262
U19A C20A | 0.287
U19A C20G | 0.31
U19A C20U | 0.303
U19A C29A | 0.332
U19A C29G | 0.295

Variant | self-cleavage
U19A C29U | 0.376
U19A C30A | 0.294
U19A C30G | 0.28
U19A C30U | 0.369
U19A C38A | 0.313
U19A C38G | 0.365
U19A C38U | 0.358
U19A C43A | 0.279
U19A C43G | 0.346
U19A C43U | 0.396
U19A G22A | 0.346
U19A G22C | 0.356
U19A G22U | 0.3
U19A G25A | 0.347
U19A G25C | 0.296
U19A G25U | 0.35
U19A G27A | 0.34
U19A G27C | 0.401
U19A G27U | 0.26
U19A G31A | 0.41
U19A G31C | 0.384
U19A G31U | 0.402
U19A G33A | 0.356
U19A G33C | 0.291

Variant | self-cleavage
U19A G33U | 0.398
U19A G35A | 0.317
U19A G35C | 0.422
U19A G35U | 0.373
U19A G36A | 0.369
U19A G36C | 0.367
U19A G36U | 0.302
U19A G39A | 0.297
U19A G39C | 0.329
U19A G39U | 0.29
U19A G45A | 0.354
U19A G45C | 0.405
U19A G45U | 0.41
U19A U21A | 0.292
U19A U21C | 0.248
U19A U21G | 0.314
U19A U24A | 0.465
U19A U24C | 0.362
U19A U24G | 0.327
U19A U28A | 0.368
U19A U28C | 0.313
U19A U28G | 0.374
U19A U32A | 0.321
U19A U32C | 0.377

Variant | self-cleavage
U19A U32G | 0.33
U19C | 0.737
U19C A23C | 0.299
U19C A23G | 0.369
U19C A23U | 0.372
U19C A26C | 0.367
U19C A26G | 0.242
U19C A26U | 0.492
U19C A34C | 0.411
U19C A34G | 0.478
U19C A34U | 0.339
U19C A37C | 0.668
U19C A37G | 0.41
U19C A37U | 0.437
U19C A40C | 0.305
U19C A40G | 0.332
U19C A40U | 0.272
U19C A41C | 0.429
U19C A41G | 0.228
U19C A41U | 0.271
U19C A42C | 0.237
U19C A42G | 0.279
U19C A42U | 0.212
U19C A44C | 0.325

Variant | self-cleavage
U19C A44G | 0.751
U19C A44U | 0.258
U19C C20A | 0.329
U19C C20G | 0.289
U19C C20U | 0.321
U19C C29A | 0.374
U19C C29G | 0.434
U19C C29U | 0.491
U19C C30A | 0.416
U19C C30G | 0.459
U19C C30U | 0.878
U19C C38A | 0.414
U19C C38G | 0.407
U19C C38U | 0.36
U19C C43A | 0.284
U19C C43G | 0.393
U19C C43U | 0.376
U19C G22A | 0.282
U19C G22C | 0.323
U19C G22U | 0.267
U19C G25A | 0.312
U19C G25C | 0.378
U19C G25U | 0.273
